Tested on: Escherichia coli TOP10
Test: shrunken log2 fold change of peptide-encoding DNA abundance (4.5 h post-induction vs induction); higher = less antimicrobial activity (less host growth inhibition)
Details: time post-induction: 4.5 h; library: site-saturation at positions 5, 18, 19, 20
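Also: peptides expressed intracellularly from a pBAD plasmid library in pooled LB shake-flask culture, induced with 0.3% L-arabinose, DNA abundance read by NGS, three biological replicates, DESeq2 with apeglm shrinkage.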

For RRIRSRPPRLPRPRPRPCMRPRP, the “shrunken log2 fold change” value was 0.0526.

For RRIRSRPPRLPRPRPRPCPIPRP, the “shrunken log2 fold change” value was -0.267.

With RRIRSRPPRLPRPRPRPCPWPRP the “shrunken log2 fold change” value was -0.115.

With RRIRSRPPRLPRPRPRPCQEPRP the “shrunken log2 fold change” value was -0.0101.

RRIRSRPPRLPRPRPRPCQFPRP was tested, and the “shrunken log2 fold change” value was -0.0444.

For RRIRSRPPRLPRPRPRPCQSPRP, the “shrunken log2 fold change” value was -0.01.

For RRIRSRPPRLPRPRPRPCSTPRP, the “shrunken log2 fold change” value was 0.129.

In the case of RRIRSRPPRLPRPRPRPCTHPRP, the “shrunken log2 fold change” value is reported as -0.00194.

For RRIRSRPPRLPRPRPRPCTNPRP, the “shrunken log2 fold change” value was -0.256.

In the case of RRIRSRPPRLPRPRPRPCTSPRP, the “shrunken log2 fold change” value is reported as -0.0192.

RRIRSRPPRLPRPRPRPCVFPRP was tested, and the “shrunken log2 fold change” value was -0.112.

With RRIRSRPPRLPRPRPRPCVNPRP the “shrunken log2 fold change” value was -0.0338.

In the case of RRIRSRPPRLPRPRPRPCWDPRP, the “shrunken log2 fold change” value is reported as -0.189.

For RRIRSRPPRLPRPRPRPCWWPRP, the “shrunken log2 fold change” value was 0.159.

With RRIRSRPPRLPRPRPRPCYLPRP the “shrunken log2 fold change” value was -0.586.

RRIRSRPPRLPRPRPRPDAFPRP was tested, and the “shrunken log2 fold change” value was 0.387.

With RRIRSRPPRLPRPRPRPDAIPRP the “shrunken log2 fold change” value was 0.339.

With RRIRSRPPRLPRPRPRPDAKPRP the “shrunken log2 fold change” value was 0.0687.

For RRIRSRPPRLPRPRPRPDASPRP, the “shrunken log2 fold change” value was 0.495.

For RRIRSRPPRLPRPRPRPDDKPRP, the “shrunken log2 fold change” value was 0.132.

For RRIRSRPPRLPRPRPRPDEHPRP, the “shrunken log2 fold change” value was -0.125.

RRIRSRPPRLPRPRPRPDELPRP was tested, and the “shrunken log2 fold change” value was -0.0328.

For RRIRSRPPRLPRPRPRPDEQPRP, the “shrunken log2 fold change” value was 0.202.

For RRIRSRPPRLPRPRPRPDFNPRP, the “shrunken log2 fold change” value was -0.411.

With RRIRSRPPRLPRPRPRPDFQPRP the “shrunken log2 fold change” value was -0.0122.

RRIRSRPPRLPRPRPRPDFTPRP was tested, and the “shrunken log2 fold change” value was 0.0298.

In the case of RRIRSRPPRLPRPRPRPDHAPRP, the “shrunken log2 fold change” value is reported as 0.0838.

For RRIRSRPPRLPRPRPRPDHNPRP, the “shrunken log2 fold change” value was -0.308.

For RRIRSRPPRLPRPRPRPDHYPRP, the “shrunken log2 fold change” value was -0.341.

With RRIRSRPPRLPRPRPRPDIYPRP the “shrunken log2 fold change” value was -0.194.

With RRIRSRPPRLPRPRPRPDKIPRP the “shrunken log2 fold change” value was 0.11.

RRIRSRPPRLPRPRPRPDKTPRP was tested, and the “shrunken log2 fold change” value was 0.178.

In the case of RRIRSRPPRLPRPRPRPDMFPRP, the “shrunken log2 fold change” value is reported as -0.212.

In the case of RRIRSRPPRLPRPRPRPDNKPRP, the “shrunken log2 fold change” value is reported as -0.256.

In the case of RRIRSRPPRLPRPRPRPDPKPRP, the “shrunken log2 fold change” value is reported as -0.00687.

For RRIRSRPPRLPRPRPRPDPVPRP, the “shrunken log2 fold change” value was 0.377.

RRIRSRPPRLPRPRPRPDQAPRP was tested, and the “shrunken log2 fold change” value was -0.107.

For RRIRSRPPRLPRPRPRPDQIPRP, the “shrunken log2 fold change” value was 0.0424.

In the case of RRIRSRPPRLPRPRPRPDQNPRP, the “shrunken log2 fold change” value is reported as -0.182.

RRIRSRPPRLPRPRPRPDRCPRP was tested, and the “shrunken log2 fold change” value was -0.115.

For RRIRSRPPRLPRPRPRPDSPPRP, the “shrunken log2 fold change” value was 0.242.

With RRIRSRPPRLPRPRPRPDTCPRP the “shrunken log2 fold change” value was -0.225.

RRIRSRPPRLPRPRPRPDTEPRP was tested, and the “shrunken log2 fold change” value was -0.0911.

With RRIRSRPPRLPRPRPRPDTFPRP the “shrunken log2 fold change” value was 0.024.

In the case of RRIRSRPPRLPRPRPRPDVEPRP, the “shrunken log2 fold change” value is reported as 0.00664.

In the case of RRIRSRPPRLPRPRPRPDVKPRP, the “shrunken log2 fold change” value is reported as -0.0928.

In the case of RRIRSRPPRLPRPRPRPDWDPRP, the “shrunken log2 fold change” value is reported as 0.157.

RRIRSRPPRLPRPRPRPDWMPRP was tested, and the “shrunken log2 fold change” value was 0.0892.

For RRIRSRPPRLPRPRPRPDYFPRP, the “shrunken log2 fold change” value was -0.133.

For RRIRSRPPRLPRPRPRPDYGPRP, the “shrunken log2 fold change” value was -0.0953.

With RRIRSRPPRLPRPRPRPEAFPRP the “shrunken log2 fold change” value was -0.0131.

RRIRSRPPRLPRPRPRPEAPPRP was tested, and the “shrunken log2 fold change” value was 0.67.

In the case of RRIRSRPPRLPRPRPRPECPPRP, the “shrunken log2 fold change” value is reported as -0.0934.

RRIRSRPPRLPRPRPRPECQPRP was tested, and the “shrunken log2 fold change” value was -0.00188.

For RRIRSRPPRLPRPRPRPEEEPRP, the “shrunken log2 fold change” value was 1.47.

In the case of RRIRSRPPRLPRPRPRPEENPRP, the “shrunken log2 fold change” value is reported as 0.64.

With RRIRSRPPRLPRPRPRPEFDPRP the “shrunken log2 fold change” value was 0.202.

RRIRSRPPRLPRPRPRPEFHPRP was tested, and the “shrunken log2 fold change” value was -0.162.

With RRIRSRPPRLPRPRPRPEFKPRP the “shrunken log2 fold change” value was 0.00218.

RRIRSRPPRLPRPRPRPEFLPRP was tested, and the “shrunken log2 fold change” value was 0.278.

With RRIRSRPPRLPRPRPRPEGYPRP the “shrunken log2 fold change” value was -0.0595.

RRIRSRPPRLPRPRPRPEISPRP was tested, and the “shrunken log2 fold change” value was -0.094.

For RRIRSRPPRLPRPRPRPELTPRP, the “shrunken log2 fold change” value was 0.316.

For RRIRSRPPRLPRPRPRPEMRPRP, the “shrunken log2 fold change” value was 0.84.

For RRIRSRPPRLPRPRPRPENGPRP, the “shrunken log2 fold change” value was 0.0751.

RRIRSRPPRLPRPRPRPENTPRP was tested, and the “shrunken log2 fold change” value was -0.258.

In the case of RRIRSRPPRLPRPRPRPEPGPRP, the “shrunken log2 fold change” value is reported as 0.197.

With RRIRSRPPRLPRPRPRPEPTPRP the “shrunken log2 fold change” value was 0.467.

RRIRSRPPRLPRPRPRPEPVPRP was tested, and the “shrunken log2 fold change” value was 1.44.

For RRIRSRPPRLPRPRPRPEPWPRP, the “shrunken log2 fold change” value was 0.548.

With RRIRSRPPRLPRPRPRPEQLPRP the “shrunken log2 fold change” value was -0.0808.

With RRIRSRPPRLPRPRPRPEQNPRP the “shrunken log2 fold change” value was 0.274.

For RRIRSRPPRLPRPRPRPEQVPRP, the “shrunken log2 fold change” value was 0.243.

With RRIRSRPPRLPRPRPRPESAPRP the “shrunken log2 fold change” value was 0.278.

In the case of RRIRSRPPRLPRPRPRPESFPRP, the “shrunken log2 fold change” value is reported as -0.0898.

With RRIRSRPPRLPRPRPRPESHPRP the “shrunken log2 fold change” value was -0.44.

For RRIRSRPPRLPRPRPRPETGPRP, the “shrunken log2 fold change” value was 0.105.

RRIRSRPPRLPRPRPRPETIPRP was tested, and the “shrunken log2 fold change” value was 0.148.

RRIRSRPPRLPRPRPRPEVMPRP was tested, and the “shrunken log2 fold change” value was 0.104.

With RRIRSRPPRLPRPRPRPEVWPRP the “shrunken log2 fold change” value was 0.779.

With RRIRSRPPRLPRPRPRPEWMPRP the “shrunken log2 fold change” value was 0.0203.

For RRIRSRPPRLPRPRPRPEYMPRP, the “shrunken log2 fold change” value was -0.609.

With RRIRSRPPRLPRPRPRPFDPPRP the “shrunken log2 fold change” value was -0.102.

With RRIRSRPPRLPRPRPRPFDTPRP the “shrunken log2 fold change” value was -0.201.

For RRIRSRPPRLPRPRPRPFFMPRP, the “shrunken log2 fold change” value was -0.288.

For RRIRSRPPRLPRPRPRPFFWPRP, the “shrunken log2 fold change” value was 0.485.

In the case of RRIRSRPPRLPRPRPRPFGEPRP, the “shrunken log2 fold change” value is reported as -0.066.

In the case of RRIRSRPPRLPRPRPRPFGFPRP, the “shrunken log2 fold change” value is reported as -0.137.

In the case of RRIRSRPPRLPRPRPRPFGQPRP, the “shrunken log2 fold change” value is reported as -0.197.

With RRIRSRPPRLPRPRPRPFHDPRP the “shrunken log2 fold change” value was -0.204.

With RRIRSRPPRLPRPRPRPFHNPRP the “shrunken log2 fold change” value was -0.0339.

With RRIRSRPPRLPRPRPRPFHVPRP the “shrunken log2 fold change” value was -0.108.

RRIRSRPPRLPRPRPRPFIHPRP was tested, and the “shrunken log2 fold change” value was -0.154.

With RRIRSRPPRLPRPRPRPFLCPRP the “shrunken log2 fold change” value was -0.634.

RRIRSRPPRLPRPRPRPFLWPRP was tested, and the “shrunken log2 fold change” value was -0.0904.

With RRIRSRPPRLPRPRPRPFMHPRP the “shrunken log2 fold change” value was -0.321.

With RRIRSRPPRLPRPRPRPFMVPRP the “shrunken log2 fold change” value was -0.337.

RRIRSRPPRLPRPRPRPFPAPRP was tested, and the “shrunken log2 fold change” value was 0.0186.

With RRIRSRPPRLPRPRPRPFPCPRP the “shrunken log2 fold change” value was -0.124.

For RRIRSRPPRLPRPRPRPFPPPRP, the “shrunken log2 fold change” value was -0.0275.

With RRIRSRPPRLPRPRPRPFQHPRP the “shrunken log2 fold change” value was -0.0131.

RRIRSRPPRLPRPRPRPFRSPRP was tested, and the “shrunken log2 fold change” value was 0.00887.

For RRIRSRPPRLPRPRPRPFSQPRP, the “shrunken log2 fold change” value was -1.07.

RRIRSRPPRLPRPRPRPFTLPRP was tested, and the “shrunken log2 fold change” value was -0.163.

For RRIRSRPPRLPRPRPRPFVGPRP, the “shrunken log2 fold change” value was -0.222.

In the case of RRIRSRPPRLPRPRPRPFWCPRP, the “shrunken log2 fold change” value is reported as -0.0118.

For RRIRSRPPRLPRPRPRPFWDPRP, the “shrunken log2 fold change” value was 0.0853.

RRIRSRPPRLPRPRPRPFYDPRP was tested, and the “shrunken log2 fold change” value was -0.254.

RRIRSRPPRLPRPRPRPFYGPRP was tested, and the “shrunken log2 fold change” value was -0.507.
